Data as given in US20020123082A1 (NEW YORK UNIVERSITY, published 2002).

B1: human F-box protein FBP2 (other)
chain: MERKDFETWLDNISVTFLSLTDLQKNETLDHLISLSGAVQLRHLSNNLETLLKRDFLKLLPLELSFYLLKWLDPQTLLTCCLVSKQWNKVISACTEVWQTACKNLGWQIDDSVQDALHWKKVYLKAILRMKQLEDHEAFETSSLIGHSARVYALYYKDGLLCTGSDDLSAKLWDVSTGQCVYGIQTHTCAAVKFDEQKLVTGSFDNTVACWEWSSGARTQHFRGHTGAVFSVDYNDELDILVSGSADFTVKVWALSAGTCLNTLTGHTEWVTKVVLQKCKVKSLLHSPGDYILLSADKYEIKIWPIGREINCKCLKTLSVSEDRSICLQPRLHFDGKYIVCSSALGLYQWDFASYDILRVIKTPEIANLALLGFGDIFALLFDNRYLYIMDLRTESLISRWPLPEYRESKRGSSFLAGEHPG
B2: human F-box protein FBP3a (other)
chain: MKRGGRDSDRNSSEEGTAEKSKKLRTTNEHSQTCDWGNLLQDIILQVFKYLPLLDRAHASQVCRNWNQVFHMPDLWRCFEFELNQPATSYLKATHPELIKQIIKRHSNHLQYVSFKVDSSKESAEAACDILSQLVNCSLKTLGLISTARPSFMDLPKSHFISALTVVFVNSKSLSSLKIDDTPVDDPSLKVLVANNSDTLKLLKMSSCPHVSPAGILCVADQCHGLRELALNYHLLSDELLLALSSEKHVRLEHLRIDVVSENPGQTHFHTIQKSSWDAFIRHSPKVNLVMYFFLYEEEFDPFFRYEIPATHLYFGRSVSKDVLGRVGMTCPRLVELVVCANGLRPLDEELIRIAERCKNLSAIGLGECEVSCSAFVEFVKMCGGRLSQLSIMEEVLIPDQKYSLEQIHWEVSKHLGRVWFPDMMPTW
B3: human F-box protein FBP1 (other)
chain: MDPAEAVLQEKALKFMNSSEREDCNNGEPPRKIIPEKNSLRQTYNSCARLCLNQETVCLASTAMKTENCVAKTKLANGTSSMIVPKQRKLSASYEKEKELCVKYFEQWSESDQVEFVEHLISQMCHYQHGHINSYLKPMLQRDFITALPARGLDHIAENILSYLDAKSLCAAELVCKEWYRVTSDGMLWKKLIERMVRTDSLWRGLAERRGWGQYLFKNKPPDGNAPPNSFYRALYPKIIQDIETIESNWRCGRHSLQRIHCRSETSKGVYCLQYDDQKIVSGLRDNTIKIWDKNTLECKRILTGHTGSVLCLQYDERVIITGSSDSTVRVWDVNTGEMLNTLIHHCEAVLHLRFNNGMMVTCSKDRSIAVWDMASPTDITLRRVLVGHRAAVNVVDFDDKYIVSASGDRTIKVWNTSTCEFVRTLNGHKRGIACLQYRDRLVVSGSSDNTIRLWDIECGACLRVLEGHEELVRCIRFDNKRIVSGAYDGKIKVWDLVAALDPRAPAGTLCLRTLVEHSGRVFRLQFDEFQIVSSSHDDTILIWDFLNDPAAQAEPPRSPSRTYTYISR
B4: human F-box protein FBP5 (other)
chain: MSRRPCSCALRPPRCSCSASPSAVTAAGRPRPSDSCKEESSTLSVKMKCDFNCNHVHSGLKLVKPDDIGRLVSYTPAYLEGSCKDCIKDYERLSCIGSPIVSPRIVQLETESKRLHNKENQHVQQTLNSTNEIEALETSRLYEDSGYSSFSLQSGLSEHEEGSLLEENFGDSLQSCLLQIQSPDQYPNKNLLPVLHFEKVVCSTLKKNAKRNPKVDREMLKEIIARGNFRLQNIIGRKMGLECVDILSELFRRGLRHVLATILAQLSDMDLINVSKVSTTWKKILEDDKGAFQLYSKAIQRVTENNNKFSPHASTREYVMFRTPLASVQKSAAQTSLKKDAQTKLSNQGDQKGSTYSRHNEFSEVAKTLKKNESLKACIRCNSPAKYDCYLQRATCKREGCGFDYCTKCLCNYHTTKDCSDGKLLKASCKIGPLPGTKKSKKNLRRL
notes: Gal4 AD fusion in the two-hybrid screen; the clone appeared to be full length
B5: Flag-tagged FBP2 (other, not shown: small tags and cut ends)
chain: B1 chain
notes: pcDNA3 construct, Flag tag at the C-terminus
B6: Flag-tagged FBP3a (other, not shown: small tags and cut ends)
chain: B2 chain
notes: as for B5
B7: Flag-tagged FBP1 (other, not shown: small tags and cut ends)
chain: B3 chain
notes: Flag tag at the C-terminus in the pcDNA3 constructs (HeLa, 293 cells); also called Flag-FBP1
B8: Flag-tagged FBP4 (other, not shown: small tags and cut ends)
chain: MAGSEPRSGTNSPPPPFSDWGRLEAAILSGWKTFWQSVSKDRVARTTSREEVDEAASTLTRLPIDVQLYILSFLSPHDLCQLGSTNHYWNETVRNPILWRYFLLRDLPSWSSVDWKSLPYLQILKKPISEVSDGAFFDYMAVYLMCCPYTRRASKSSRPMYGAVTSFLHSLIIPNEPRFALFGPRLEQLNTSLVLSLLSSEELCPTAGLPQRQIDGIGSGVNFQLNNQHKFNILILYSTTRKERDRAREEHTSAVNKMFSRHNEGDDRPGSRYSVIPQIQKLCEVVDGFIYVANAEAHKRHEWQDEFSHIMAMTDPAFGSSGRPLLVLSCISQGDVKRMPCFYLAHELHLNLLNHPWLVQDTEAETLTGFLNGIEWILEEVESKRAR
notes: as for B5
B9: Flag-tagged FBP7 (other, not shown: small tags and cut ends)
chain: MSNTRFTITLNYKDPLTGDEETLASYGIVSGDLICLILHDDIPPPNIPSSTDSEHSSLQNNEQPSLATSSNQTSIQDEQPSDSFQGQAAQSGVWNDDSMLGPSQNFEAESIQDNAHMAEGTGFYPSEPLLCSESVEGQVPHSLETLYQSADCSDANDALIVLIHLLMLESGYIPQGTEAKALSLPEKWKLSGVYKLQYMHHLCEGSSATLTCVPLGNLIVVNATLKINNEIRSVKRLQLLPESFICKEKLGENVANIYKDLQKLSRLFKDQLVYPLLAFTRQALNLPNVFGLVVLPLELKLRIFRLLDVRSVLSLSAVCRDLFTASNDPLLWRFLYLRDFRDNTVRVQDTDWKELYRKRHIQRKESPKGRFVLLLPSSTHTIPFYPNPLHPRPFPSSRLPPGIIGGEYDQRPTLPYVGDPISSLIPGPGETPSQLPPLRPRFDPVGPLPGPNPILPGRGGPNDRFPFRPSRGRPTDGRLSFM
notes: Expressed in HeLa cells
B10: Flag-tagged (ΔF)FBP2 (other, not shown: small tags and cut ends)
chain: MERKDFETWLDNISVTFLSLTDLQKNETLDHLISLSGAVQLRHLSNNLETLLKRDFLKLCKNLGWQIDDSVQDALHWKKVYLKAILRMKQLEDHEAFETSSLIGHSARVYALYYKDGLLCTGSDDLSAKLWDVSTGQCVYGIQTHTCAAVKFDEQKLVTGSFDNTVACWEWSSGARTQHFRGHTGAVFSVDYNDELDILVSGSADFTVKVWALSAGTCLNTLTGHTEWVTKVVLQKCKVKSLLHSPGDYILLSADKYEIKIWPIGREINCKCLKTLSVSEDRSICLQPRLHFDGKYIVCSSALGLYQWDFASYDILRVIKTPEIANLALLGFGDIFALLFDNRYLYIMDLRTESLISRWPLPEYRESKRGSSFLAGEHPG
notes: pcDNA3 construct, Flag tag at the C-terminus; also called Flag-tagged (deltaF)FBP2
B11: Flag-tagged (ΔF)FBP1 (other, not shown: small tags and cut ends)
chain: MDPAEAVLQEKALKFMNSSEREDCNNGEPPRYRVTSDGMLWKKLIERMVRTDSLWRGLAERRGWGQYLFKNKPPDGNAPPNSFYRALYPKIIQDIETIESNWRCGRHSLQRIHCRSETSKGVYCLQYDDQKIVSGLRDNTIKIWDKNTLECKRILTGHTGSVLCLQYDERVIITGSSDSTVRVWDVNTGEMLNTLIHHCEAVLHLRFNNGMMVTCSKDRSIAVWDMASPTDITLRRVLVGHRAAVNVVDFDDKYIVSASGDRTIKVWNTSTCEFVRTLNGHKRGIACLQYRDRLVVSGSSDNTIRLWDIECGACLRVLEGHEELVRCIRFDNKRIVSGAYDGKIKVWDLVAALDPRAPAGTLCLRTLVEHSGRVFRLQFDEFQIVSSSHDDTILIWDFLNDPAAQAEPPRSPSRTYTYISR
notes: pcDNA3 construct, Flag tag at the C-terminus; also called Flag-tagged (deltaF)FBP1

biological target: His-tagged Elongin C (human, UniProt Q15369 1-112); experiment: pull-down of in vitro translated 35S-FBP on His-Elongin C Nickel-agarose beads
Procedure: FIG. 29. FBPs interact specifically with Skp1 through their F-box. The cDNAs of FBPs (wild type and mutants) were transcribed and translated in vitro (IVT) in the presence of 35S- methionine. […] Bound IVT proteins were analyzed by SDS-PAGE and autoradiography. The arrows on the left side of the panels point to the indicated FBPs. The apparent molecular weights of the protein standards are indicated on the right side of the panels.
As examples of the human FBP family, a more detailed characterization of some FBPs was performed. To confirm the specificity of interaction between the novel FBPs and human Skp1, eight in vitro translated FBPs were tested for binding to His-tagged-Skp1 pre-bound to Nickel-agarose beads. As a control Elongin C was used, the only known human Skp1 homolog.

Chain of His-tagged Elongin C (Q15369 whole entry): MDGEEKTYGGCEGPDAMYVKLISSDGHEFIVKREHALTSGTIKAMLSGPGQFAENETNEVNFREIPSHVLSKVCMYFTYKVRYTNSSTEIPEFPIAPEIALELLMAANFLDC

Binding result, no binding:
B1, B2, B3, B4

biological target: human Cul2 (endogenous) (human, UniProt Q13617 1-745, limits assumed); experiment: anti-Flag co-immunoprecipitation from transfected HeLa cells, anti-Cul2 immunoblot
Description: (§1) HeLa cells were transfected with mammalian expression plasmids encoding Flag-tagged versions of FBP1 (lane 1), (ΔF)FBP1 (lane 2), FBP4 (lane 3), FBP7 (lane 5), FBP2 (lane 7), (ΔF)FBP2 (lane 8), FBP3a (lane 9), (ΔF)FBP3a (lane 10), or with an empty vector (lanes 4 and 6). Cells were lysed and extracts were subjected to immunoprecipitation with a rabbit anti-Flag antibody (lanes 1-8). Immunoprecipitates were then immunoblotted with a mouse anti-Cul1 monoclonal antibody, a rabbit anti-Skp1 polyclonal antibody or a rabbit anti-Cul2 polyclonal antibody, as indicated. The last lane contains 25 μg of extracts from non-transfected HeLa cells; […] contains recombinant Cul1, Skp1, or Cul2 proteins used as markers.

Chain of human Cul2 (endogenous) (Q13617 whole entry): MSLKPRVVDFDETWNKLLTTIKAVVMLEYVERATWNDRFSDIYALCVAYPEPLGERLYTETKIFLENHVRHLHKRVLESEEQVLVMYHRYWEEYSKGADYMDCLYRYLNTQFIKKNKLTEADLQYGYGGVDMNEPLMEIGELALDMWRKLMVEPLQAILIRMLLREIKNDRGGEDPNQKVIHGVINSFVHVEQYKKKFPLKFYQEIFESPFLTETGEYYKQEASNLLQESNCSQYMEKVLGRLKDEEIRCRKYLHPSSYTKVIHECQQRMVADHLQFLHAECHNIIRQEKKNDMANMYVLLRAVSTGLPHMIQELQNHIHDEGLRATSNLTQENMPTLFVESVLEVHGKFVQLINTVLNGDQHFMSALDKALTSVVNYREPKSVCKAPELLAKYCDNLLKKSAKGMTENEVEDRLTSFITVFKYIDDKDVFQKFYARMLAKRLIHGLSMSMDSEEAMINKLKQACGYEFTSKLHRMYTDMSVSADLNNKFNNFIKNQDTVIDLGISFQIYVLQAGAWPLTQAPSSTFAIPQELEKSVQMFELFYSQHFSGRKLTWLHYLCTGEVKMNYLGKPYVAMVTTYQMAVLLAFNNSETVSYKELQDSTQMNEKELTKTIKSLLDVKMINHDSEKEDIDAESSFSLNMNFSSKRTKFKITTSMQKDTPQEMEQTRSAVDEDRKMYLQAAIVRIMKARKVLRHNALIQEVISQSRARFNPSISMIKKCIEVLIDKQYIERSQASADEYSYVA

Binding result, no binding:
B5, B6, B7, B8, B9

biological target: T1, human Cul1 (endogenous) (human, UniProt Q13616 1-776); experiment: anti-Flag co-immunoprecipitation from transfected HeLa cells, anti-Cul1 immunoblot
T1 construct: A slower migrating form is said to be likely modified by a ubiquitin-like molecule
Description: as §1

T1 sequence (Q13616 whole entry): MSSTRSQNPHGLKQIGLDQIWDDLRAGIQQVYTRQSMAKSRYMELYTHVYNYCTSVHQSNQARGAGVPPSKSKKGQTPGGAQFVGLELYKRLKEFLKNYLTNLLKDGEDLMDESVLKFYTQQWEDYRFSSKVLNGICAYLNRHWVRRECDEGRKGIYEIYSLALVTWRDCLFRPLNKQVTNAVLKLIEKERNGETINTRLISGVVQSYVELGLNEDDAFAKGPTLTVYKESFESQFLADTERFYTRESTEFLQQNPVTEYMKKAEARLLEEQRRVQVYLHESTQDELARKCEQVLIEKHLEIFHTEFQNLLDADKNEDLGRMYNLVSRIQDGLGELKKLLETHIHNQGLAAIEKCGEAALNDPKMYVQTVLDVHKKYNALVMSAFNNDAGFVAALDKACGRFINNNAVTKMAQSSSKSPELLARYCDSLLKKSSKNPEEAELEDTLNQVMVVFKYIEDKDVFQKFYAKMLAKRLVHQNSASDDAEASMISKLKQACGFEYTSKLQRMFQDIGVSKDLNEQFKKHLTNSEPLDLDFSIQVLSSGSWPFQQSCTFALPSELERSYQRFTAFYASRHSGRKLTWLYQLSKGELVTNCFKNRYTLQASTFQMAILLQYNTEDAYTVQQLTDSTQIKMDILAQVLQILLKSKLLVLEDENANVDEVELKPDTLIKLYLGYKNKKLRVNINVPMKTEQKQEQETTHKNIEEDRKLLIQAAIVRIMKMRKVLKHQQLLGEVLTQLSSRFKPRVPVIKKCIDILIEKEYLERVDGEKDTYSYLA

Binding result, no binding:
B10, B11
